Laboratory results from PMC6749138.

Columns and labels:
[1] = biological target: HA-tagged HIV-1 Nef E63A (HIV-1 (NL4-3)) (UniProt P03406)
[2] = biological target: HA-tagged HIV-1 Nef F68A (HIV-1 (NL4-3)) (UniProt P03406)
[3] = biological target: HA-tagged HIV-1 Nef E63A/F68A double mutant (HIV-1 (NL4-3)) (UniProt P03406)

Q: Which results are given for “adaptor protein 1 (AP-1) complex (from UniProt Q9BXS5 1-423)”?
A: ratio of the GFP+ MHC-I- population of HEK293T cells transfected with Nef (flow cytometry; wild type 34.9%) [1]: 25.7%; ratio of the GFP+ MHC-I- population of HEK293T cells transfected with Nef (flow cytometry; wild type 34.9%) [2]: 23.2%; ratio of the GFP+ MHC-I- population of HEK293T cells transfected with Nef (flow cytometry; wild type 34.9%) [3]: 19.2%
